# Data taken from the nanobody polyreactivity screen of Harvey et al. (2022).
# Assay: yeast display, Sf9 membrane polyspecificity reagent, FACS + sequencing; frameworks hold sequencing errors
# In short: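 Sorting gates, low and high (top ~1%), were placed on anti-HA fluorescence to track expression and on streptavidin fluorescence to track reagent binding. A clone's polyreactivity label is taken from the gate it came out of. The reagent was 10% biotinylated, detergent-solubilized Sf9 membrane, applied for 1 hour at 4 °C to galactose-induced yeast display cells.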
row,Sequence,polyreactivity (PSR sort gate)
1,QVQLVESGGGLVQAGGSLRLICAASGFTFSVYAMGWYRQAPGKERELVAAITWRGGSTYYADSVKGRFTISRDNAKNTVYLQMNSLKPEDTAVYYCAVLYPKYGKRYGYWGQGTQVTVSS,high polyreactivity
2,QVQQHESGGGLVQAGGSLRLTCAASGTISESGLMGWYRQAPGKERELVAGISSGGITNYADSVKGRFTISRDIAINTVYLQMNSPKPEDTAEYWGQGSQVTVSS,low polyreactivity
3,QVQLVESGGGLVQAGGSLRLSCAASGRIFLSYAMGWYRQAPGKERELVAAISQSGSSKYYADSVKGRFTISRDNAKNTVYLQMNSLKPEDTAVYYCAARTGRKYYYWGQGTQVTVST,high polyreactivity
4,QVQLVESGGGLVQAGGSLRLSCAASGRIFSRNTMGWYRQATGKEREFVAAISQSGGRTYYADSVKGRFTISRDNAKNNVYLQMNSLKPEDTAVYYCAARSRGYDIRYGYWGQGTQVTVSS,high polyreactivity
5,QVQLVESGGGLVQAGGSLRLSCAASGSTFYHNAMGWYRQAPGKERELVAAITTSGGSTYYADSVKGRFTISRDNAKNTVYLQMNSLKPEDTAVYYCNVYRPYLAPYDYWGQGTQVTVSS,low polyreactivity
6,QVQLVESGGCLVQAGGSLRLSCAASGRILLHNAMGWYRQAPGKERELVAAITNGGSTYYADSVKGRFTISRDNAKNTVYLQMNSLKPEDTAVYYCAARTRLAQYSRGRYRYDYWGQGTQVTVSS,high polyreactivity
7,QVQLVESGGGLVQAGGSLRLSCAACGSTFWYYVMGWYRQAPGKERELVAAISTRGDSTYYADSVKGRFTISRDNAKNTVYLQMNSLKAEDTAVYYCAKSRQSSGRVRFDYWGQGTQVTVSS,low polyreactivity
8,QVQLVESGGGLVQAGGSLRLTCAACGRTFYWYSMGWYRKAPGKERELVATITRTGTRTYYADSVKGRFTISRDNAKNTVYLQMNSLKPEDTAVYYCAAGVIRYGGKEEYYYWGLGTQVTVSS,high polyreactivity
9,QVQLVESGGGLVHAGGSLRLSCAASGSIFKYYAMGWYRQAPGKERELVAAISSGGSTNYADSVKGRFTISRDNAKNTVYLQMNSLKPEDTAVYYCAVDRYCWLDGYDYWGQGTQVTVSS,high polyreactivity
10,QVQLVESGGGLVQAGGSLRLSCASSGSIFRRNVMGWYRQAPGKERELVASITGRGGSTYYADSVKGRFTISRDNAKNTVYLQMNSLKPEDTAVYYSNADSLRTYDWYTRTVGYGYWVQGTQVTVSS,high polyreactivity
11,QVQLVESGGGLVQAGGSLRLSCAASGRIFYPYVMGWYRQAPGKERELVAAISASGGRTYYADSVKGRFTISRDNAKNTVYLQMNSLKPEDTAVYYCAAQGWRYYRTVVPMDYWGQGTQVTVSS,low polyreactivity
12,QVQLVESGGGLVQAGGSLRLSCAASGLTLAGYAMGWYRQAPGKERELVAAITASGVRTYYADSVKGRFTISRDNAKNTVYLQMNSLKPEDTAVYYCAAGVQTQRGGYAIYRPGLRYYWGQGTQVTVSS,high polyreactivity
13,QVQLVESGGGLVPAGGSLRLSWAASGFIFGYNVMGWYRQAPGKVRELVAAISRGGSTNYADSVKGRFTISRDNAKKTVSGQMTSLKPEATAVYDCAARRYRPAAFDSWGQGTQVTVSS,high polyreactivity
14,QVQLVESGGGLVQAGGSLRLSCAASGLTIWYYSMGLYRQAPGKEREFVAAITSRGGDTNYADSVKGRFTISRDNAKNTVYLQMNSLKPEDTAVYYCAVRPRYYGTYRYYYWGQGTQVTVSS,high polyreactivity
15,QVQLVESGGGLVQAGGSLRLSCAASGTFWLYTMGWYRQAPGKERELVAAISLTAGNTYYADSVKGRFTISRDNAKNTVYLQMNSLKPEDTAVYYCAADHYYYTRYEYWGQGTQVTVSS,low polyreactivity
16,QVQLVESGGGLVQAGGSLRLSCAASGSTFRNYAMGWYRQAPGKERELVATISASGGSTYYADSVKGRFTISRDNAKNTVYLQMNSLKPEDTAVYYCNAVVKLWGLVIPPGDYDYWGQGTQVTVSS,high polyreactivity
17,QDQLVESGGGLVQAGGSLRLSCAASGFTFAGYAMGWYRQAPGKERELVAAITYSGGRTYYADSVKGRFTISRDNAKNTVYLQMNSLKPEDTAVYYCAARNYRYPGRYVYWGQGTQVTVSS,high polyreactivity
